Data reported in the supplement of paper PMC10065799, “High-throughput profiling of sequence recognition by tyrosine kinases and SH2 domains using bacterial peptide display” (eLife, 2023).

System: c-Src
Test: phosphorylation enrichment, bacterial display (enrichment ratio); higher = better substrate or ligand; peptides without Tyr show the background
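Throughout, for SH2 binding enrichment of the phosphorylated peptide, bacterial display: peptide library displayed on the E. coli surface as eCPX fusions, selected cells deep-sequenced, score is each peptide's frequency after selection divided by its frequency in the input.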
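Throughout, for phosphorylation enrichment, bacterial display: 11-residue human phosphosite peptides and single-mutation variants displayed on the E. coli surface, counted by deep sequencing, each peptide's frequency after selection divided by its frequency in the unselected input library; frequency after pTyr selection over input frequency; kinase dosed for 20-30% of maximal phosphorylation in three min.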

Point of comparison: TIMTNYNPNFC [ALK_Y1092_D1091N_YF], phosphorylation enrichment 0.533. Against it:
- TVDASYCGGRG [ANTXR2_Y380_Y381C] — lower, 0.351
- RRNSPYSQTMK [TET2_Y819] — higher, 1.02
- EAEPFYRSLRD [NPHS1_Y1139_YF] — lower, 0.53
- GIVEDYRPRFY [ACVRL1_Y421_P424R] — lower, 0.464
- YIATQYSLCPR [LBR_Y166_R169C] — higher, 0.725
- KDFTKYVAFIE [KDM4B_Y31_N29T_YF] — lower, 0.457
- REHTVYGEPRK [MAGEA4_Y240] — higher, 0.599
- GQDLFYEDEDL [PACS1_Y303] — higher, 0.598
- DFFDLYGGKKF [PTPN11_Y66_E69K_YF] — higher, 3.49
- STLEVYSCHPP [IL21R_Y317] — higher, 1.65
- MHDKEYYSVHN [MET_Y1234_Y1230H] — higher, 0.61
- RQRTAYFSLDT [CDH1_Y68] — the same, 0.533
- AVEDQYYRVDC [FHL1_Y207_C209R] — higher, 1.6
- GVTLLCYGRYN [ADGRD1_Y85_Y85C] — higher, 0.97
- LRNIDYHRLDG [ATRX_Y2083_Y2084H] — lower, 0.297
- LTRDIYKNDYY [ROS1_Y2110_A2106T] — higher, 2.86
- CHRQLYHKCTH [F12_Y58_Y53C] — lower, 0.457
- VRLTEYPCAGL — lower, 0.398
- GPKSTYISSAA [GOLGA5_Y62] — lower, 0.508
- VAMELYVFRGV [GAN_Y471_G474R] — higher, 0.615
- GESLTYVSTTF [C1orf162_Y120_A121V] — higher, 0.664
- RIVTTYIRERE [DNM2_Y463] — lower, 0.499
- RNVYYYSYLLK [PTEN_Y178_Y174N] — higher, 7.3
- VLTSTYRGGGG [HBA1_Y141_K140T] — lower, 0.394
- KIFPEYLSNWT [AIFM1_Y347_L344F] — lower, 0.479
- SEASYYKSLNL [NGEF_Y289] — lower, 0.515
- QGCSIYKDFFR [PLA2G2D_Y82_YF] — higher, 6.61
- GDGRFYMMEAI [PGM1_Y66_K68M] — higher, 0.88
- HMRLRYLAAEE [CEP120_Y884_Q879H] — higher, 0.659
- DFTSRYLSASD [PKHD1_Y828_N830S] — lower, 0.329
- VQVAFYTMMMN [SPATA17_Y84_YF] — higher, 0.956
- DKANRYFSPNV [PTEN_Y336_F341V] — lower, 0.388

Target: Grb2 SH2 (UniProt P62993)
Test: SH2 binding enrichment of the phosphorylated peptide, bacterial display (enrichment ratio); higher = better substrate or ligand; peptides without Tyr show the background

Chain of Grb2 SH2 (P62993 whole entry, looked up): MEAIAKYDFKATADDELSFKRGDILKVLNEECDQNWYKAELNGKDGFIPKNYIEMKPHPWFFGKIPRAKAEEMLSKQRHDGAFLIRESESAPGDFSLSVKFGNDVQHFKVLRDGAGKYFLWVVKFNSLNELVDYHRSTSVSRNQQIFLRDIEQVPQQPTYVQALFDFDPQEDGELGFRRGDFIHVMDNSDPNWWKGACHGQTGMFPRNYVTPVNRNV

Point of comparison: REHTVYGEPRK [MAGEA4_Y240], SH2 binding enrichment 0.765. Against it:
- TVDASYCGGRG [ANTXR2_Y380_Y381C] — lower, 0.757
- RRNSPYSQTMK [TET2_Y819] — lower, 0.76
- EAEPFYRSLRD [NPHS1_Y1139_YF] — higher, 1.19
- GIVEDYRPRFY [ACVRL1_Y421_P424R] — higher, 0.882
- YIATQYSLCPR [LBR_Y166_R169C] — higher, 0.885
- KDFTKYVAFIE [KDM4B_Y31_N29T_YF] — higher, 0.894
- GQDLFYEDEDL [PACS1_Y303] — lower, 0.711
- DFFDLYGGKKF [PTPN11_Y66_E69K_YF] — higher, 0.967
- STLEVYSCHPP [IL21R_Y317] — lower, 0.71
- MHDKEYYSVHN [MET_Y1234_Y1230H] — higher, 0.827
- RQRTAYFSLDT [CDH1_Y68] — higher, 0.928
- AVEDQYYRVDC [FHL1_Y207_C209R] — higher, 0.949
- GVTLLCYGRYN [ADGRD1_Y85_Y85C] — lower, 0.753
- LRNIDYHRLDG [ATRX_Y2083_Y2084H] — lower, 0.725
- LTRDIYKNDYY [ROS1_Y2110_A2106T] — higher, 1.35
- CHRQLYHKCTH [F12_Y58_Y53C] — higher, 1.53
- VRLTEYPCAGL — higher, 0.932
- GPKSTYISSAA [GOLGA5_Y62] — lower, 0.715
- VAMELYVFRGV [GAN_Y471_G474R] — higher, 0.836
- GESLTYVSTTF [C1orf162_Y120_A121V] — higher, 0.843
- RIVTTYIRERE [DNM2_Y463] — lower, 0.71
- RNVYYYSYLLK [PTEN_Y178_Y174N] — higher, 1.5
- VLTSTYRGGGG [HBA1_Y141_K140T] — higher, 0.84
- KIFPEYLSNWT [AIFM1_Y347_L344F] — higher, 0.944
- SEASYYKSLNL [NGEF_Y289] — lower, 0.718
- QGCSIYKDFFR [PLA2G2D_Y82_YF] — higher, 0.921
- GDGRFYMMEAI [PGM1_Y66_K68M] — lower, 0.683
- HMRLRYLAAEE [CEP120_Y884_Q879H] — higher, 1.14
- TIMTNYNPNFC [ALK_Y1092_D1091N_YF] — higher, 0.775
- DFTSRYLSASD [PKHD1_Y828_N830S] — lower, 0.694
- VQVAFYTMMMN [SPATA17_Y84_YF] — higher, 0.816
- DKANRYFSPNV [PTEN_Y336_F341V] — higher, 0.808

Target: SHP2-C SH2
Test: as above

Point of comparison: TIMTNYNPNFC [ALK_Y1092_D1091N_YF], SH2 binding enrichment 0.531. Against it:
- TVDASYCGGRG [ANTXR2_Y380_Y381C] — higher, 0.914
- RRNSPYSQTMK [TET2_Y819] — lower, 0.43
- EAEPFYRSLRD [NPHS1_Y1139_YF] — higher, 0.628
- GIVEDYRPRFY [ACVRL1_Y421_P424R] — higher, 0.757
- YIATQYSLCPR [LBR_Y166_R169C] — higher, 0.839
- KDFTKYVAFIE [KDM4B_Y31_N29T_YF] — higher, 1.79
- REHTVYGEPRK [MAGEA4_Y240] — higher, 0.54
- GQDLFYEDEDL [PACS1_Y303] — higher, 0.636
- DFFDLYGGKKF [PTPN11_Y66_E69K_YF] — higher, 0.775
- STLEVYSCHPP [IL21R_Y317] — higher, 0.559
- MHDKEYYSVHN [MET_Y1234_Y1230H] — lower, 0.423
- RQRTAYFSLDT [CDH1_Y68] — higher, 11.3
- AVEDQYYRVDC [FHL1_Y207_C209R] — higher, 0.92
- GVTLLCYGRYN [ADGRD1_Y85_Y85C] — higher, 0.806
- LRNIDYHRLDG [ATRX_Y2083_Y2084H] — higher, 1.25
- LTRDIYKNDYY [ROS1_Y2110_A2106T] — higher, 0.906
- CHRQLYHKCTH [F12_Y58_Y53C] — higher, 1.3
- VRLTEYPCAGL — higher, 0.76
- GPKSTYISSAA [GOLGA5_Y62] — lower, 0.52
- VAMELYVFRGV [GAN_Y471_G474R] — higher, 0.567
- GESLTYVSTTF [C1orf162_Y120_A121V] — higher, 0.712
- RIVTTYIRERE [DNM2_Y463] — higher, 0.655
- RNVYYYSYLLK [PTEN_Y178_Y174N] — higher, 2.1
- VLTSTYRGGGG [HBA1_Y141_K140T] — higher, 0.645
- KIFPEYLSNWT [AIFM1_Y347_L344F] — higher, 0.614
- SEASYYKSLNL [NGEF_Y289] — higher, 0.644
- QGCSIYKDFFR [PLA2G2D_Y82_YF] — higher, 0.724
- GDGRFYMMEAI [PGM1_Y66_K68M] — higher, 0.584
- HMRLRYLAAEE [CEP120_Y884_Q879H] — higher, 1.39
- DFTSRYLSASD [PKHD1_Y828_N830S] — higher, 0.713
- VQVAFYTMMMN [SPATA17_Y84_YF] — higher, 0.814
- DKANRYFSPNV [PTEN_Y336_F341V] — higher, 0.839

Target: c-Src SH2
Test: as above

Point of comparison: TIMTNYNPNFC [ALK_Y1092_D1091N_YF], SH2 binding enrichment 0.478. Against it:
- TVDASYCGGRG [ANTXR2_Y380_Y381C] — higher, 0.567
- RRNSPYSQTMK [TET2_Y819] — higher, 0.545
- EAEPFYRSLRD [NPHS1_Y1139_YF] — higher, 0.521
- GIVEDYRPRFY [ACVRL1_Y421_P424R] — higher, 0.481
- YIATQYSLCPR [LBR_Y166_R169C] — higher, 0.713
- KDFTKYVAFIE [KDM4B_Y31_N29T_YF] — higher, 0.674
- REHTVYGEPRK [MAGEA4_Y240] — lower, 0.443
- GQDLFYEDEDL [PACS1_Y303] — higher, 0.588
- DFFDLYGGKKF [PTPN11_Y66_E69K_YF] — lower, 0.428
- STLEVYSCHPP [IL21R_Y317] — lower, 0.451
- MHDKEYYSVHN [MET_Y1234_Y1230H] — higher, 0.513
- RQRTAYFSLDT [CDH1_Y68] — higher, 1.74
- AVEDQYYRVDC [FHL1_Y207_C209R] — higher, 0.724
- GVTLLCYGRYN [ADGRD1_Y85_Y85C] — higher, 0.486
- LRNIDYHRLDG [ATRX_Y2083_Y2084H] — higher, 0.714
- LTRDIYKNDYY [ROS1_Y2110_A2106T] — higher, 1.53
- CHRQLYHKCTH [F12_Y58_Y53C] — higher, 1.5
- VRLTEYPCAGL — higher, 0.572
- GPKSTYISSAA [GOLGA5_Y62] — lower, 0.403
- VAMELYVFRGV [GAN_Y471_G474R] — higher, 0.548
- GESLTYVSTTF [C1orf162_Y120_A121V] — higher, 0.519
- RIVTTYIRERE [DNM2_Y463] — higher, 0.518
- RNVYYYSYLLK [PTEN_Y178_Y174N] — higher, 1.61
- VLTSTYRGGGG [HBA1_Y141_K140T] — lower, 0.452
- KIFPEYLSNWT [AIFM1_Y347_L344F] — higher, 0.628
- SEASYYKSLNL [NGEF_Y289] — higher, 0.588
- QGCSIYKDFFR [PLA2G2D_Y82_YF] — higher, 0.487
- GDGRFYMMEAI [PGM1_Y66_K68M] — lower, 0.419
- HMRLRYLAAEE [CEP120_Y884_Q879H] — higher, 1.18
- DFTSRYLSASD [PKHD1_Y828_N830S] — higher, 0.527
- VQVAFYTMMMN [SPATA17_Y84_YF] — higher, 0.721
- DKANRYFSPNV [PTEN_Y336_F341V] — higher, 0.644
